Results on 1 protein are retold here after publication doi:10.1101/2021.04.21.440744 (bioRxiv, 2021).

This data set deals with the molecule itself. Kind of data set: […].

B1: Ebola virus transmembrane glycoprotein GP (natural protein)
chain: IPLGVIHNSTLQVSDVDKLVCRDKLSSTNQLRSVGLNLEGNGVATDVPSATKRWGFRSGVPPKVVNYEAGEWAENCYNLEIKKPDGSECLPAAPDGIRGFPRCRYVHKVSGTGPCAGDFAFHKEGAFFLYDRLASTVIYRGTTFAEGVVAFLILPQAKKDFFSSHPLREPVNATEDPSSGYYSTTIRYQATGFGTNETEYLFEVDNLTYVQLESRFTPQFLLQLNETIYTSGKRSNTTGKLIWKVNPEIDTTIGEWAFWETKKNLTRKIRSEELSFTVVSNGAKNISGQSPARTSSDPGTNTTTEDHKIMASENSSAMVQVHSQGREAAVSHLTTLATISTSPQSLTTKPGPDNSTHNTPVYKLDISEATQVEQHHRRTDNDSTASDTPSATTAAGPPKAENTNTSKSTDFLDPATTTSPQNHSETAGNNNTHHQDTGEESASSGKLGLITNTIAGVAGLITGGRRTRREAIVNAQPKCNPNLHYWTTQDEGAAIGLAWIPYFGPAAEGIYIEGLMHNQDGLICGLRQLANETTQALQLFLRATTELRTFSILNRKAIDFLLQRWGGTCHILGPDCCIEPHDWTKNITDKIDQIIHDFVDKTLPDQGDNDNWWTGWRQWIPAGIGVTGVIIAVIALFCICKFVF
For orientation: stoichiometry N means the number of molecules, sites or subunits per partner or assembly. On to B1, for which the “stoichiometry N” value worked out at 3.
